Data set [1] has as its system Prp43;Cmg1 (Saccharomyces cerevisiae?;Saccharomyces cerevisiae?). The experiment in a line: fluorescence anisotropy. In general terms: In fluorescence polarisation assays a small probe gives low polarisation when free and higher when bound to something large.
The test system of another data set is Prp43. The experiment in a line: fluorescence anisotropy.
Another data set concerns the target Prp43 1–657 (Saccharomyces cerevisiae, UniProt P53131). Conditions: ATPase assay of the truncation; details in supplement.
The target of a further data set is Prp43 92–767 (Saccharomyces cerevisiae, UniProt P53131). Conditions: ATPase assay of the truncation; details in supplement.
Chain of Prp43 92–767 (P53131 92-767): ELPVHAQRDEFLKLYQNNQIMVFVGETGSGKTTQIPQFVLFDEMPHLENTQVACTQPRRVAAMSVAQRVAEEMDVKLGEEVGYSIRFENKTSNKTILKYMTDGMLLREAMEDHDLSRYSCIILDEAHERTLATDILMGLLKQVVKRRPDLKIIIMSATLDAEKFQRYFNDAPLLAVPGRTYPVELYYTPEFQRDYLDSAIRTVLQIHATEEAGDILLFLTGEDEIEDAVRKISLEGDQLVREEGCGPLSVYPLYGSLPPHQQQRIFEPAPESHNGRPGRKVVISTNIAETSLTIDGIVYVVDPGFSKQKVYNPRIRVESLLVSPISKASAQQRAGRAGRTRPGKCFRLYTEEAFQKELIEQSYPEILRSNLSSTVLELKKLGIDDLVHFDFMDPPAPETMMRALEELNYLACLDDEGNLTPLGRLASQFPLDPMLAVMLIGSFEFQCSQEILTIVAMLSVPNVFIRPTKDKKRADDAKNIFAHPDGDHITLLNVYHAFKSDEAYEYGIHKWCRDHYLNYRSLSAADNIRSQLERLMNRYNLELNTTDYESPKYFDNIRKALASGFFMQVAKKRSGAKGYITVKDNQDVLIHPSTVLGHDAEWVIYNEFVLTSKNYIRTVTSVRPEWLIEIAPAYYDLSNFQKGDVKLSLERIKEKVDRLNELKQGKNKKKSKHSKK
The target in a further data set is His-GFP-tagged Prp43 (S. cerevisiae, UniProt P53131 1-767). The experiment in a line: pull-down.
Chain of His-GFP-tagged Prp43 (P53131 whole entry): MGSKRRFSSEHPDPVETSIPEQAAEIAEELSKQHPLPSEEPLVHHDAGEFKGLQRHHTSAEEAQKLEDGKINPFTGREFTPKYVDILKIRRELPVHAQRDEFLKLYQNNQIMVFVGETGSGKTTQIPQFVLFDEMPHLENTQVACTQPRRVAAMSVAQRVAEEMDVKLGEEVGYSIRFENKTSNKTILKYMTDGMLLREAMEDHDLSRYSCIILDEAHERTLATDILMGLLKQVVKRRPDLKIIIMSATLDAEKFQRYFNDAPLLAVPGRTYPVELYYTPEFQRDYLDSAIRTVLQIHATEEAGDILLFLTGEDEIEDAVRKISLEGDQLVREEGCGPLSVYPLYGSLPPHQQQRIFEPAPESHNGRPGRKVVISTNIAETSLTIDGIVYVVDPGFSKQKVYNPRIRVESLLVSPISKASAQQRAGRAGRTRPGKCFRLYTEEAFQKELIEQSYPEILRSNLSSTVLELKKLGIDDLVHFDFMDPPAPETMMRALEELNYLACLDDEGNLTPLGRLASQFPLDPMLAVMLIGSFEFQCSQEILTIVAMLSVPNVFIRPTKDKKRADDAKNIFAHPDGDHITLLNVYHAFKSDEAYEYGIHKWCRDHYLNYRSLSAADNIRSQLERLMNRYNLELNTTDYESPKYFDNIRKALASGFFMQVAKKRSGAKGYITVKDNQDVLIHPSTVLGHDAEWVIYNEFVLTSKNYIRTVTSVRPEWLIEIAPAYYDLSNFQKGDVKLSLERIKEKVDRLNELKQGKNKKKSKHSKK
The target in data set [2] is His10-ZZ-TEV-tagged full length Prp43 (S. cerevisiae, UniProt P53131 1-767). The data set is described as follows: pull-down.
Chain of His10-ZZ-TEV-tagged full length Prp43 (P53131 whole entry): as above

Chain of Prp43 1–657 (P53131 1-657): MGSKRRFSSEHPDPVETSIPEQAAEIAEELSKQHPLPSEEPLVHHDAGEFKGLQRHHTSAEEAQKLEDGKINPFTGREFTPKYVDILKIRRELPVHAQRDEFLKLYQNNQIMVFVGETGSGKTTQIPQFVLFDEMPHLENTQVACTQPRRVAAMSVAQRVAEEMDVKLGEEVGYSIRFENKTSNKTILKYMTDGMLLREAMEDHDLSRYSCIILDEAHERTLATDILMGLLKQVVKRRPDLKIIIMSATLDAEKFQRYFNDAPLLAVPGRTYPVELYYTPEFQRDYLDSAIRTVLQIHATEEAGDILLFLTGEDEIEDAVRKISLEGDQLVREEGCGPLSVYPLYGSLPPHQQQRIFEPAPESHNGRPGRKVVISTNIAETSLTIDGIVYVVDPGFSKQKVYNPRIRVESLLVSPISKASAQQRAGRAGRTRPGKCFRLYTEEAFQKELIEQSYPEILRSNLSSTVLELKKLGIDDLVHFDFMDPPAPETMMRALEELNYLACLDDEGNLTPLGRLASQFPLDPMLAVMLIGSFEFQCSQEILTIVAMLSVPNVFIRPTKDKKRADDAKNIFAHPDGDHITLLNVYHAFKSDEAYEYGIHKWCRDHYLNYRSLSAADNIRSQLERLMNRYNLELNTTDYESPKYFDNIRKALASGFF

The term Kd denotes the equilibrium constant for the complex coming apart. A high value points to lower affinity. On to fluorescein-labeled 11 nt RNA, for which the Kd in data set [1] is 2.3 nM; with Prp43 it was 60 nM.
On to `Nc1ncnc2c1ncn2[C@@H]1O[C@H](COP(=O)(O)OP(=O)(O)OP(=O)(O)O)[C@@H](O)[C@H]1O` [ATP], for which the “NADH-coupled ATPase assay (pyruvate kinase / LDH), A340” value on Prp43 1–657 is “the N- and C-terminal truncations of Prp43 themselves show ATPase activity”; on Prp43 92–767, “the N- and C-terminal truncations of Prp43 themselves show ATPase activity”.

B1: His10-ZZ-TEV-tagged Cmg1 (natural protein)
chain: MEESKTKRKEDRIDLKNTPPQKKSKRDSTNDETARTSLRSIMPRGYKMMENMGYKEGETLGSNESALKEPIKVEINTKRRGIRAEKPDPSTMNDMQMSEQRFIKRESEMKNNKRLKKIWYRIQKVAFEMMGDSDLYNPGEDPRDFNVLWRSYVMQLNEEVAKNDLNNHSNNDNEDKNNMIPMVNESLEASPAIKGEKFGRPSTLIDCDTSIIGSRITKDTELAELEELSIEKRITKLNIFLRSEKYYCFFCGIKYKDEGDLYEHCPGVNEDDHK
As for B1, the binding result with His-GFP-tagged Prp43 is given as “binds”.

B2: MBP-tagged full length Cmg1 (natural protein)
chain: MEESKTKRKEDRIDLKNTPPQKKSKRDSTNDETARTSLRSIMPRGYKMMENMGYKEGETLGSNESALKEPIKVEINTKRRGIRAEKPDPSTMNDMQMSEQRFIKRESEMKNNKRLKKIWYRIQKVAFEMMGDSDLYNPGEDPRDFNVLWRSYVMQLNEEVAKNDLNNHSNNDNEDKNNMIPMVNESLEASPAIKGEKFGRPSTLIDCDTSIIGSRITKDTELAELEELSIEKRITKLNIFLRSEKYYCFFCGIKYKDEGDLYEHCPGVNEDDHK
For B2, the binding result in data set [2] was “binds”.

B3: His10-ZZ-TEV-tagged Spp382 G-patch domain (amino acids 51–110) (domain or fragment)
chain: NAPTISKLTKTYGIGAKLLSSMGYVAGKGLGKDGSGITTPIETQSRPMHNAGLGMFSNTN
For B3, the binding result in the data set with His-GFP-tagged Prp43 is listed as “binds”.

B4: His10-MBP-TEV-tagged Cmg1 1–85 (domain or fragment)
chain: MEESKTKRKEDRIDLKNTPPQKKSKRDSTNDETARTSLRSIMPRGYKMMENMGYKEGETLGSNESALKEPIKVEINTKRRGIRAE
As to B4, the binding result (in the data set with His-GFP-tagged Prp43; in data set [2]) was “binds” each time.

B5: His10-MBP-TEV-tagged Pxr1 1–82 (domain or fragment)
chain: MGLAATRTKQRFGLDPRNTAWSNDTSRFGHQFLEKFGWKPGMGLGLSPMNSNTSHIKVSIKDDNVGLGAKLKRKDKKDEFDN
In the case of B5, the binding result with His-GFP-tagged Prp43 is “binds”.

B6: His10-MBP-TEV-tagged Sqs1 705–767 (domain or fragment)
chain: VKEGEIVGQNAPEIGNENIGRRMLEKLGWKSGEGLGIQGNKGISEPIFAKIKKNRSGLRHSES
Turning to B6, in the data set with His-GFP-tagged Prp43, the binding result is reported as “binds”.

(Values after PMC4829300 (RNA Biology, 2016).)
